Assay results as given in PMC4489650, “Aurora-A-Dependent Control of TACC3 Influences the Rate of Mitotic Spindle Assembly” (PLoS Genetics, 2015).
Numbering of substitutions follows the chain as printed. Names and notes keep the numbering of the source.

Experiments:
[1] = target: T1, complex of AurA-DN/TPX2^1-43 (UniProt O14965 122-403; Q9ULW0 1-43, D274N); experiment: NMR; residue pair 519/520, with TPX2 1-43
AurA-DN C290A, C393A = target: T2, AurA-DN C290A, C393A (UniProt O14965 122-403, D274N | C290A | C393A); experiment: SEC; AurA-DN C290A, C393A, TPX2^1-43 and TACC3act alone and in complex on a HiLoad Superdex 200 16/60 column; fractions analysed by SDS-PAGE; settings: both partners purified
T2 construct: also called Aurora-A kinase domain (SEC); source: recombinant, purified; not further stated
T2 sequence (looked up): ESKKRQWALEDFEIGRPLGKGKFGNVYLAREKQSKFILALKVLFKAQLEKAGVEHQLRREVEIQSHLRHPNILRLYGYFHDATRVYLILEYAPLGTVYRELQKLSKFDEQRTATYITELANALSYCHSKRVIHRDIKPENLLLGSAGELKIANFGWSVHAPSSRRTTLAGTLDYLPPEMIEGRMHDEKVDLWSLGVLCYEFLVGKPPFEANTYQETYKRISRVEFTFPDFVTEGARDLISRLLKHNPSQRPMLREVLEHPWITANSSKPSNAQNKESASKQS

[2] = target: T3, complex of AurA-DN/TPX2^1-43 (UniProt O14965 122-403; Q9ULW0 1-43, D274N); experiment: NMR titration; 15N-labelled TACC3act (75 uM constant in titrations) with unlabelled AurA-DN or the AurA-DN/TPX2^1-43 complex at 0-225 uM; 1H-15N HSQC; 20 mM potassium phosphate pH 7.0, 50 mM NaCl, 1 mM DTT, 0.02% sodium azide, 5 mM ADP/MgCl2; chemical shift changes fit to Eq 1; settings: both partners purified
T3 construct: TPX2, first 43 amino acids; Added as a complex in the NMR titration; source: mixed from the purified recombinant proteins m8 and m12
T3 sequence (looked up) 1: T2 sequence (looked up) with A169C, A272C
T3 sequence (looked up) 2: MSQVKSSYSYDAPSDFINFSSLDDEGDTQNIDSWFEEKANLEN

[3] = target: T4, AurA-DN (unphosphorylated Aurora-A 122–403 D274N) (UniProt O14965 122-403, D274N); experiment: as above; settings: both partners purified
T4 construct: source: recombinant, expressed from pET30TEV, purified (Chelating Sepharose, SEC), dialysed into NMR buffer with 5 mM ADP/MgCl2
T4 sequence (looked up): T2 sequence (looked up) with A169C, A272C

[4] = target: T5, AurA-DN (unphosphorylated Aurora-A 122–403 D274N) (UniProt O14965 122-403, D274N); experiment: NMR; residue pair 520/521
T5 sequence: T2 sequence (looked up) with A169C, A272C

[5] = target: T1, complex of AurA-DN/TPX2^1-43; experiment: NMR; residue pair 520/521, with TPX2 1-43
[6] = target: T6, Aurora-A 122–403 C290A, C393A (UniProt O14965 122-403, C290A | C393A, labelled with NT-647-NHS dye); experiment: MST; 50 nM NT-647-labelled Aurora-A 122-403 C290A, C393A; TACC3act-H6c constructs 0.2-3950 uM; 50 mM Tris pH 7.6, 150 mM NaCl, 10 mM MgCl2, 5 mM beta-mercaptoethanol, 0.05% TWEEN 20; 25 C; one-site fit (Eq 2); settings: both partners purified
T6 construct: also called labelled Aurora-A; source: recombinant, expressed from pET30TEV, purified (Chelating Sepharose, SEC)
T6 sequence (looked up): T2 sequence (looked up) with N153D

[7] = target: T7, TACC3-H6c phospho-null mutant (SA: S34A, S552A, S558A) (human, UniProt Q9Y6A5 1-838, S34A | S552A | S558A); experiment: pull-down; GST co-precipitation: 100 ug GST-AurA-DN (2 uM in the TPX2 gradient experiment, with 5 uM TACC3act-H6c and 1-50 uM His6-TPX2^1-43) immobilised on Gluthathione Sepharose 4B; 100 ug TACC3 or TPX2^1-43 added, 2 hrs at 4 C; 50 mM Tris pH 7.5, 150 mM NaCl, 5 mM MgCl2, 5 mM beta-mercaptoethanol, 0.02% TWEEN 20; SDS-PAGE and anti-His6 blot; settings: both partners purified
T7 construct: TACC3, human, full length, three Aurora-A phosphorylation sites mutated to alanine; source: recombinant, expressed from pET-44C3, purified; not shown: His6, C-terminal, kept

[8] = target: T8, TACC3-H6c (full-length human TACC3 with a C-terminal non-cleavable His-tag) (human, UniProt Q9Y6A5 1-838); experiment: as above; settings: both partners purified
T8 construct: TACC3, human, full length; also called full-length TACC3; TACC3-H6c WT; source: recombinant, expressed from pET-44C3, purified; not shown: His6, C-terminal, kept

[9] = target: T9, TACC3-H6c phospho-mimic mutant (SE: S34, S552 and S558 mutated to glutamic acid) (human, UniProt Q9Y6A5 1-838, S34 to glutamic acid | S552 to glutamic acid | S558 to glutamic acid); experiment: as above; settings: both partners purified
T9 construct: TACC3, human, full length, three Aurora-A phosphorylation sites mutated to glutamic acid; source: recombinant, expressed from pET-44C3, purified; not shown: His6, C-terminal, kept

B1: TACC3act (human TACC3 residues 519–563) (domain or fragment, UniProt Q9Y6A5 519-563, looked up)
chain: ELKEESFRDPAEVLGTGAEVDYLEQFGTSSFKESALRKQSLYLKF
notes: also called ^15N-labelled TACC3act; source: recombinant, expressed from pETM6T1, purified (SEC); 15N- or 15N/13C-labelled for NMR
Question: How did the Kd [1] turn out when B1 was run?
Answer: Its Kd is 0.6 µM.

Question: Does B1 bind (AurA-DN C290A, C393A)?
Answer: Result: binds

Question: And the Kd [2]?
Answer: Its Kd is 1.1 ± 1.2 µM.

Question: What about the Kd [3] of the same binder?
Answer: The Kd was 8.2 ± 0.8 µM.

Question: And the Kd [4]?
Answer: Its Kd is 7.5 µM.

Question: What about the Kd [5] of the same binder?
Answer: Its Kd is 1.6 µM.

B2: TACC3act-H6c (human TACC3 residues 519–563 with a C-terminal His-tag) (domain or fragment, UniProt Q9Y6A5 519-563, looked up)
chain: B1 chain
notes: also called TACC3act-H6c WT; WT TACC3act; source: recombinant, construct made by the same method as TACC3-H6c, purified; not shown: His6, C-terminal, kept
Question: With B2 as the binder, how does the Kd [6] read?
Answer: Its Kd is 5.7 ± 0.4 µM.

B3: TACC3act-H6c F525A (domain or fragment, human, UniProt Q9Y6A5 519-563, looked up)
chain: B1 chain with F7A
notes: also called F525A mutant; source: recombinant, purified; not shown: His6, C-terminal, kept
Question: How did the Kd [6] turn out when B3 was run?
Answer: Its Kd is 152 ± 9.3 µM.

B4: GST-AurA-DN (GST fused to Aurora-A catalytic domain 122–403 D274N) (domain or fragment, UniProt O14965 122-403, looked up)
chain: T2 sequence (looked up) with A169C, A272C
notes: also called GST-Aurora-A; source: recombinant, expressed from pGEX-cs, purified (Gluthathione Sepharose 4B, SEC); not shown: GST, N-terminal, kept
Question: Does B4 bind [7]?
Answer: Result: binds

Question: Does B4 bind [8]?
Answer: Result: binds

Question: Does B4 bind [9]?
Answer: Result: binds
